The text below walks through data of article PMC7595633 (PLoS Neglected Tropical Diseases, 2020).

Several values for one entry are separate records, joined by “and”; a condition that tells them apart may be missing. Identical values can stand only once.

Data set [1] concerns the molecule itself. Nature of the data set: native gel or EMSA; PhastGel gradient 8-25%, room temperature; 1 mg/mL (methods), 2 mg/mL (legend of Fig 1D); Coomassie stained. (In general: In EMSA bound probe runs differently from free probe, usually more slowly.)
Data set [2] concerns the molecule itself. In words: AUC; sedimentation equilibrium; tetramer to dimers; 0.5, 0.75 and 1.0 mg/mL; 8,000, 10,000 and 12,000 rpm, 4°C; global fit in SEDPHAT.

B1: Trypanosoma brucei selenophosphate synthetase (TbSEPHS2), recombinant full-length (enzyme, UniProt Q38A34 1-393, looked up)
chain: MSEKEGKVIPETNGMKRPRFDPVKLGLPEEFTLTDYTRLKGCSCKVPQPELLALLQSVSTTPGRRDVGMDCSIVKLQHKDETGKPLYMVSTTDFFFPSVEDPYLQGQIGAANVLSDLYSTGIDRCDTVLMLLAASTDMDKTEREVCTQEMMKGFVDHVRLAGSDVTGGQTVMNPWPLIGGIATSVVAESQMIRPTGLQPGDILVLTKPLGCQIAVNLKQWLRRPSPIFEEQIQGKMDSEEIEELYNAAADGMKRLNRMAAALMHSHGAHGATDVTGFGILGHAKNLGSAQKADVCLVLDSLPMYRGAVKASKLMGDKYRLFEGYAAETSGGLLVAFGTREEAEGYIRELYETDGEPAWVVGRVVRREGSAPYALLQKDYKIIEVGAKVNDKII
notes: selenophosphate synthetase SEPHS2 of Trypanosoma brucei, Tb927.10.9410, 393 residues (from the limits of the truncated constructs); also called SPS2; TbSPSH2
For orientation: stoichiometry N means the number of molecules, sites or subunits per partner or assembly. As usually defined, the Kd is the constant that tells how readily two partners part at equilibrium. Low values mean tighter binding, high ones weaker binding. Regarding B1, the “stoichiometry N” value in data set [1] was 2 and 4. For the same protein, binding in data set [2] was characterised by a dissociation constant (Kd) of 161 ± 10 µM.
